In publication PMC5685495:

Molecular target: wild-type human dopamine transporter (human) (UniProt Q01959)
Chain of UniProt Q01959 (Q01959 whole entry): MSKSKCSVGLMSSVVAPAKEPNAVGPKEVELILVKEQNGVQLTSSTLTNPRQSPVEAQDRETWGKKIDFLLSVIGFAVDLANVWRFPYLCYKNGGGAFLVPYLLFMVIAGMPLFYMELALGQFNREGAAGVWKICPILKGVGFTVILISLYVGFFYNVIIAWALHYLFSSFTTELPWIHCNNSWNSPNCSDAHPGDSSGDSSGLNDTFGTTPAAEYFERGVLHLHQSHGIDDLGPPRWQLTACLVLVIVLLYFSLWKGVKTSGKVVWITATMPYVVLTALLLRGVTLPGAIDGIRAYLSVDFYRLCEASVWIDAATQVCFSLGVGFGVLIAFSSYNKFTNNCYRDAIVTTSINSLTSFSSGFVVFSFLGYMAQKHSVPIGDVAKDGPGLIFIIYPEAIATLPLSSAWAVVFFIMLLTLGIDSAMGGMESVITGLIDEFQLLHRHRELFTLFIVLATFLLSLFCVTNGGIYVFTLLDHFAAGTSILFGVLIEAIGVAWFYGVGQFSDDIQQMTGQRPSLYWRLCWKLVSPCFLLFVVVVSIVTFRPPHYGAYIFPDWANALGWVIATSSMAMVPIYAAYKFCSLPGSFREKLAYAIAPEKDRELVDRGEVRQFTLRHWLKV

Substance “Recombinant Tat1-86 (from UniProt P04608 1-86) (natural protein)” has a decrease in DA uptake by WT hDAT in the presence of recombinant Tat1-86 of 31%.
